Publication doi:10.1101/2024.01.20.576400 (bioRxiv, 2024)

Target: T1, Pwl2 without the signal peptide (residues 22-145) (Magnaporthe oryzae, UniProt G5EI71 22-145)
T1 sequence: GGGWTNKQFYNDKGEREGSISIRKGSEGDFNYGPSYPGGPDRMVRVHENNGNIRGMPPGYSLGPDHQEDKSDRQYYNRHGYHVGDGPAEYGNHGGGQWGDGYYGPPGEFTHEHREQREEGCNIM
Assay: ITC

B1: HMA domain of OsHIPP43 (residues 26-101) (domain or fragment)
chain: RPLQTVNIKVKMDCEGCERRVKNAVKSMRGVTSVAVNPKQSRCTVTGYVEASKVLERVKSTGKAAEMWPYVPYTMT
B1 showed a Kd of 191 nM and a dH of -67.6 kcal/mol.
